# Laboratory results as given in US20170058008A1 (SYNGENTA PARTICIPATIONS, published 2017).
# B1: ATP synthase α from S. frugiperda, V5/6xHis-tagged (pIZT/V5-His) (other, not shown: small tags and cut ends)
# chain: MSLISARIAGSVARRLPNAASQVSKVAGVAAPAVAVASRNFHVSPTQKAAEISTILEERILGAAPKADLEETGRVLSIGDGIARVYGLKNIQAEEMVEFSSGLKGMALNLEPDNVGVVVFGNDKLIKEGDIVKRTGAIVDVPVGEQLLGRVVDALGNAIDGKGPIDTKSRMRVGIKAPGIIPRVSVREPMQTGIKAVDSLVPIGRGQRELIIGDRQTGKTALAIDTIINQQRFNKGQDEKKKLYCIYVAIGQKRSTVAQIVKRLTDAGAINYTIIVSRTASDAAPLQYLAPYSGCAMGEFFRDNGKHALIIYDDLSKQAVAYRQMSLLLRRPPGREAYPGDVFYLHSRLLERAAKMSDKMGGGSLTALPVIETQAGDVSAYIPTNVISITDGQIFLETELFYKGIRPAINVGLSVSRVGSAAQTKAMKQVAGSMKLELAQYREVAAFAQFGSDLDAATQQLLNRGMRLTELLKQGQYVPMAIEEQVAIIYCGVRGHLDKLDPSKITGFEKEFTQHIKTSHQGLLATIAKDGQITPESDAALKKIVTDFLATFTQSQ
# notes: Expressed in Sf9 cells
# Columns and labels:
# [1] = target: ATP synthase β from S. frugiperda (native) (S. frugiperda); experiment: cell-based or functional assay
# [2] = target: Hsc70 from S. frugiperda (native) (S. frugiperda); experiment: cell-based or functional assay
# [3] = target: ATP synthase α from S. frugiperda (native) (S. frugiperda); experiment: cell-based or functional assay
# [4] = target: Hsc70 and serpin, co-expressed in Drosophila S2 cells (S. frugiperda; M. sexta) (UniProt Q9U639); experiment: cell-based or functional assay
# [5] = target: Hsc70, cadherin from M. sexta, and aminopeptidase-N (APN) from M. sexta, co-expressed in Drosophila S2 cells (S. frugiperda; M. sexta); experiment: cell-based or functional assay
# [6] = target: ATP synthase α + β of Sf9 cells (native, both silenced together) (S. frugiperda); experiment: cell-based or functional assay
# [7] = target: cell surface displayed serpin from M. sexta (yeast display, pYD1) (M. sexta); experiment: biopanning of a yeast surface-displayed M. sexta cDNA library with biotinylated trypsinized Vip3A; none out of twenty clones in the control without bVip3A/T
# V5-tagged Cry1Ab = target: T1, V5-tagged Cry1Ab (UniProt P0A370 29-607, limits assumed); experiment: fluorescent confocal microscopy, co-localization on transfected Sf9 cells
# T1 construct: not shown: V5 tag
# biotin labeled Cry1Ab = biotin labeled Cry1Ab (UniProt P0A370 29-607, biotin labeled (sites not given)); experiment: Far-Western blot, V5-enriched protein on PVDF probed with biotin labeled Cry1Ab
molecule,measurement,setting,value
Vip3A,"Mortality (%) Day 2, FAW larvae pretreated with dsRNA for the target, Vip3A at 100 ng/cm^2",[1],0%
same,"Mortality (%) Day 6, FAW larvae pretreated with dsRNA for the target, Vip3A at 100 ng/cm^2",[1],15.4%
same,"Mortality (%) Day 10, FAW larvae pretreated with dsRNA for the target, Vip3A at 100 ng/cm^2",[1],53.9%
same,"Mortality (%) Day 2, FAW larvae pretreated with dsRNA for the target, Vip3A at 100 ng/cm^2",[2],0%
same,"Mortality (%) Day 6, FAW larvae pretreated with dsRNA for the target, Vip3A at 100 ng/cm^2",[2],0%
same,"Mortality (%) Day 10, FAW larvae pretreated with dsRNA for the target, Vip3A at 100 ng/cm^2",[2],6.25%
same,"Mortality (%) Day 2, FAW larvae pretreated with dsRNA for the target, Vip3A at 100 ng/cm^2",[3],12.5%
same,"Mortality (%) Day 6, FAW larvae pretreated with dsRNA for the target, Vip3A at 100 ng/cm^2",[3],12.5%
same,"Mortality (%) Day 10, FAW larvae pretreated with dsRNA for the target, Vip3A at 100 ng/cm^2",[3],37.5%
trypsinized Vip3A,"percent reduction of cell viability, Sf9 cells with the target silenced by dsRNA, 200 nM trypsinized Vip3A (GFP dsRNA control 30.055)",[1],22.7%
same,"percent reduction of cell viability, Sf9 cells with the target silenced by dsRNA, 200 nM trypsinized Vip3A (GFP dsRNA control 30.055)",[2],17.1%
same,"% of dead cells, co-transfected S2 cells, 0 nM Vip3A",[4],1.5%
same,"% of dead cells, co-transfected S2 cells, 25 nM Vip3A",[4],6%
same,"% of dead cells, co-transfected S2 cells, 50 nM Vip3A",[4],17%
same,"% of dead cells, co-transfected S2 cells, 100 nM Vip3A",[4],34%
same,"% of dead cells, co-transfected S2 cells, 200 nM Vip3A",[4],64%
same,"% of dead cells, co-transfected S2 cells, 400 nM Vip3A",[4],81%
same,"% of dead cells, co-transfected S2 cells, 800 nM Vip3A",[4],96%
same,"percent reduction of cell viability, Sf9 cells with the target silenced by dsRNA, 200 nM trypsinized Vip3A (GFP dsRNA control 30.055)",[3],0.99%
same,"% of dead cells, co-transfected S2 cells, 0 nM Vip3A",[5],4%
same,"% of dead cells, co-transfected S2 cells, 25 nM Vip3A",[5],3%
same,"% of dead cells, co-transfected S2 cells, 50 nM Vip3A",[5],7%
same,"% of dead cells, co-transfected S2 cells, 100 nM Vip3A",[5],6%
same,"% of dead cells, co-transfected S2 cells, 200 nM Vip3A",[5],9%
same,"% of dead cells, co-transfected S2 cells, 400 nM Vip3A",[5],10%
same,"% of dead cells, co-transfected S2 cells, 800 nM Vip3A",[5],8%
same,"percent reduction of cell viability, Sf9 cells with the target silenced by dsRNA, 200 nM trypsinized Vip3A (GFP dsRNA control 30.055)",[6],0.986%
same,share of sequenced clones carrying the serpin gene after seven rounds of selection,[7],45%
B1,binding result,V5-tagged Cry1Ab,no binding (tested: 200 nM)
same,binding result,biotin labeled Cry1Ab,no binding
